For test [1], the target named is recombinant human DP IV, wild type (human) (UniProt P27487). Briefly: photometric assay, competition with the standard substrate GP-4NA.
Test [2] shares this target. As to the kind of experiment: MALDI-TOF MS, inhibition of DP IV-catalyzed truncation of the substrate GIP after preincubation with TFTSDY.
Test [3] shares this target. As to the kind of experiment: MALDI-TOF MS, inhibition of DP IV-catalyzed truncation of the substrate PACAP-27 after preincubation with TFTSDY.
Test [4] has the same target. As to the kind of experiment: MALDI-TOF MS, inhibition of DP IV-catalyzed truncation of the substrate PACAP-38 after preincubation with TFTSDY.
For test [5] the target is unchanged. As to the kind of experiment: MALDI-TOF MS, inhibition of DP IV-catalyzed truncation of the substrate glucagon after preincubation with TFTSDY.

As a reminder, the Ki is the equilibrium dissociation constant of an inhibitor or competing ligand from its target.

Where no end group is shown, it is not given here. The star is where a group is joined. Thia = thiazolidide, C1CN(*)CS1

recombinant human DP IV, wild type (human), sequence (P27487 other isoform, or with tags, fused parts or gaps): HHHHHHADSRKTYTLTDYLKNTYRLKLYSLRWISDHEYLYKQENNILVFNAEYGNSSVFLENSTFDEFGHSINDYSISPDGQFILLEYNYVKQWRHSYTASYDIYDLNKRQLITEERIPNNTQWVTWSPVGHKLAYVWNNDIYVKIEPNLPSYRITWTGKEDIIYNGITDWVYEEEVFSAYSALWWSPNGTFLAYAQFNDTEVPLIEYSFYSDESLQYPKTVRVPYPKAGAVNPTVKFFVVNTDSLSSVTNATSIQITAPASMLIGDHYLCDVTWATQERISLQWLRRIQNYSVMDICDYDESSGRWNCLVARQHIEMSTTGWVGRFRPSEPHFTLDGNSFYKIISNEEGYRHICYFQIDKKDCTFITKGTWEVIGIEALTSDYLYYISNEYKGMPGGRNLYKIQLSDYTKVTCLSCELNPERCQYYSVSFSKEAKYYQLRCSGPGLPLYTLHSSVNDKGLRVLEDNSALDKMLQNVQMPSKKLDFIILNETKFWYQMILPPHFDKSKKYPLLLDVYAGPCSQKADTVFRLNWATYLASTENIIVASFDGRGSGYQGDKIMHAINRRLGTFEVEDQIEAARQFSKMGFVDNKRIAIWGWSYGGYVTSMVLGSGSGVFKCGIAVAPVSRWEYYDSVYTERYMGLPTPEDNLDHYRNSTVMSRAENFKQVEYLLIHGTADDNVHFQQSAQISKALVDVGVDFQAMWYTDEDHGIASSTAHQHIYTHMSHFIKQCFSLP

B1: PACAP-38 (peptide, UniProt P18509 132-169, looked up)
peptide: HSDGIFTDSYSRYRKQMAVKKYLAAVLGKRYKQRVKNK
modifications: ends and bridges not checked
For B1, the Ki in test [1] came to 38300 nM.

B2: YAESTF amide (peptide)
peptide: YAESTF-NH2
Regarding B2, in test [1], the Ki was 35.1 nM.

B3: Transp 01 (…-E-Thia) (peptide)
peptide: RRLSYSRRRFE-Thia
modifications: also: linkage of decapeptide to Glu not explained
Consider B3, for which, in test [1], the Ki was determined as 50.8 nM.

B4: hexapeptide TFTSDY (peptide)
peptide: TFTSDY
Consider B4, for which the Ki in test [2] is 14 µM; in test [3], 26.7 µM; in test [4] it was 2800 nM; in test [5], 3.7 µM.

These data come from patent US20060234940A1.
